PMC5473857

Target: FtsZ-F268C labeled with fluorescein 5-maleimide (donor) or tetramethylrhodamine 5-maleimide (acceptor) (E. coli) (UniProt P0A9A6)

FRET assay of subunit exchange of FtsZ protofilaments at steady state with FtsA*, pH 6.5: reaction time τ (13.1 s for FtsZ alone): 38 s
B1: FtsA-R286W (FtsA*) from E. coli (natural protein)
chain: MIKATDRKLVVGLEIGTAKVAALVGEVLPDGMVNIIGVGSCPSRGMDKGGVNDLESVVKCVQRAIDQAELMADCQISSVYLALSGKHISCQNEIGMVPISEEEVTQEDVENVVHTAKSVRVRDEHRVLHVIPQEYAIDYQEGIKNPVGLSGVRMQAKVHLITCHNDMAKNIVKAVERCGLKVDQLIFAGLASSYSVLTEDERELGVCVVDIGGGTMDIAVYTGGALRHTKVIPYAGNVVTSDIAYAFGTPPSDAEAIKVRHGCALGSIVGKDESVEVPSVGGRPPWSLQRQTLAEVIEPRYTELLNLVNEEILQLQEKLRQQGVKHHLAAGIVLTGGAAQIEGLAACAQRVFHTQVRIGAPLNITGLTDYAQEPYYSTAVGLLHYGKESHLNGEAEVEKRVTASVGSWIKRLNSWLRKEF
